How the values were obtained:
[1] = tested on: BMSC; assay: Direct toxicity on bone marrow stroma cells (annexin V); type: cell-based, human; conditions: 5 μg/ml, 72 hours (FIG. 5 legend)
Method: FIG. 5 is a graph showing apoptosis of UTMC2 cells in response to treatment with PRO-001 in the presence of BMSCs (stroma). BMSCs alone (stroma) or BMSCs together with UTMC2 cells (stroma/UTMC2) were cultured with control antibody or 5 μg/ml PRO-001 for 72 hours and apoptosis was assessed by means of a flow cytometry assay of annexin V binding and propidium iodide exclusion. Values represent means of quadruplicate cultures ±SD.
(§1) Non-transformed rat chondrocyte cell line expressing PGFR3 in an inducible manner (RCJ-FGFR3) has been described previously (Rauchenberger R. et al. J. Biol. Chem. 2003; 278:38194-205). Cells were maintained in α-Minimum Essential Media supplemented with 15% fetal calf serum (FCS), 2 mM L-Glutamine, 100 U/ml penicillin, 100 μg/ml streptomycin, 600 μg/ml G418 (Gibco BRL, Ontario, Canada), 2 μg/ml Tetracyclin (Sigma, Ontario, Canada), and 50 μg/ml HygromycinB (Gibco BRL). FGFR3 expression was induced by removal of tetracyclin and serum starvation. […]
For studies of apoptosis, cells were seeded at an initial density of 2.5×10^5/ml in 6 well plates coated with BMSCs and supplemented with control (vehicle or antibody) or 5 μg/ml PRO-001 and cultured for 48 h. Apoptosis was determined by Annexin V staining (Boehringer Mannheim, Indianapolis, Ind.) and analyzed by flow cytometry. […]

[2] = tested on: ERK1/2 phosphorylation; assay: ERK1/2 phosphorylation in aFGF-stimulated UTMC2 cells (flow cytometry); type: cell-based, human
Text: FIG. 3 is a flow cytometry chart showing phosphorylation of ERK (Extracellular signal-regulated protein kinase) in UTMC2 cells. The filled histogram represents UTMC2 without FGF stimulation (unstimulated); the light line represents cells stimulated with FGF and treated with a control antibody (FGF/vehicle); the dark line represents cells stimulated with FGF and treated with PRO-001 (FGF/PRO-001).
Determination of ERK1/2 phosphorylation by flow cytometry has been described previously (Chow S, et al., Cytometry 2001; 46:72-78). Cells were serum-starved overnight and then stimulated with 30 ng/ml of aFGF and 10 μg/ml heparin for 10 minutes at 37° C. The cells were immediately fixed by adding 10% formaldehyde directly into the culture medium to obtain a final concentration of 2%. Cells were incubated in fixative for 10 min at 37° C. then on ice for an additional 2 minutes. The cells were permeabilized by adding ice-cold methanol (to a final concentration of 90%) while vortexing and incubated on ice for 30 minutes. […] Flow cytometry was performed on a FACSCaliber® flow cytometer (BD Biosciences, San Jose, Calif.) and analyzed using Cellquest® software (Becton Dickinson).

[3] = biological target: T1, WT FGFR3 (Homo sapiens, UniProt P22607); assay: Viability of FGF-stimulated B9-FGFR3^WT cells; type: cell-based
T1 construct: expressed in transfected cells; host or cells: B9 cells
T1 sequence (P22607 23-806): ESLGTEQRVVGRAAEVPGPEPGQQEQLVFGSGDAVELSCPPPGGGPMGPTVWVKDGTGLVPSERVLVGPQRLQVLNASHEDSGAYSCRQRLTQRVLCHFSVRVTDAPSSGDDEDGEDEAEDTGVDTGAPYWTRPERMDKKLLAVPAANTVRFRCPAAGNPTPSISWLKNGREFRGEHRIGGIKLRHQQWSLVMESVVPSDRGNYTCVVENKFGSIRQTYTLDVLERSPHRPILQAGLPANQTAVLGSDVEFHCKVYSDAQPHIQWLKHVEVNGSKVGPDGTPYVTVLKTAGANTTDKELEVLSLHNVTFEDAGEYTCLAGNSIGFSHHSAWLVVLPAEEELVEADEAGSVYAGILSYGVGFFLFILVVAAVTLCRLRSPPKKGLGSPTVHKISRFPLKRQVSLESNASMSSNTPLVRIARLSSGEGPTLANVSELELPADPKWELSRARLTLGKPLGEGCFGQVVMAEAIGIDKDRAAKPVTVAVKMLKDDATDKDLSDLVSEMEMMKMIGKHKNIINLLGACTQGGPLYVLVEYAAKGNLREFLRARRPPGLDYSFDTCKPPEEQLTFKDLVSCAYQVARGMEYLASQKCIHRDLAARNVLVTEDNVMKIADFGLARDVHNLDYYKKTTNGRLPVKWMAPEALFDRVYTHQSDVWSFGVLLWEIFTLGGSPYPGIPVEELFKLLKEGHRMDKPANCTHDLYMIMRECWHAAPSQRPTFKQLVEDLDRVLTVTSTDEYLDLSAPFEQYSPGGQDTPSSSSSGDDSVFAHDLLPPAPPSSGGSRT
Method: FIG. 1B is a graph showing viability of B9-FGFR WT cells treated with different concentrations of PRO-001. The filled bars represent the control (no PRO-001). The dotted bars represent PRO-001 treated cells.
Non-transformed rat chondrocyte cell line expressing PGFR3 in an inducible manner (RCJ-FGFR3) has been described previously (Rauchenberger R. et al. J. Biol. Chem. 2003; 278:38194-205). Cells were maintained in α-Minimum Essential Media supplemented with 15% fetal calf serum (FCS), 2 mM L-Glutamine, 100 U/ml penicillin, 100 μg/ml streptomycin, 600 μg/ml G418 (Gibco BRL, Ontario, Canada), 2 μg/ml Tetracyclin (Sigma, Ontario, Canada), and 50 μg/ml HygromycinB (Gibco BRL). […]
(§2) Cell viability was assessed by 3-(4,5-dimethylthiazol)-2,5-diphenyl tetrazolium (MTT) or (2,3-bis(2-methoxy-4-nitro-5-sulphophenyl)-5-[(phenylamino) carbonyl]-2H-tetrazolium hydroxide (XTT) dye absorbance where indicated. Cells were seeded in 96-well plates at a density of 20,000 (FDCP-1 cells), 5,000 (B9 cells) or 25,000 cells (MM cell lines) per well in culture medium. Cells were incubated in the absence or presence of one of the following cytokines: 10 ng/ml FGF9 and 5 μg/ml heparin, 1% murine IL-6, 50 ng/ml IGF-1 or 50 ng/ml human IL-6 where indicated and increasing concentrations of PRO-001, control antibody (purified human Fab) or 100 nM PD173074. […]

[4] = tested on: KMS11 (FGFR3-Y373C); assay: Viability of KMS11 myeloma cells; type: cell-based, human; conditions: cells grow independent of FGF
Method: as §1, §2

B1: PRO-001: human anti-FGFR3 Fab from HuCAL library; VH-CDR3 SEQ ID NO:1, VL-CDR3 SEQ ID NO:10; VH SEQ ID NO:19, VL SEQ ID NO:28 (antibody, V domains shown)
VH: QVQLQQSGPGLVKPSQTLSLTCAISGDSVSSNSAAWNWIRQSPGRGLEWLGRTYYRSKWYNDYAVSVKSRITINPDTSKNQFSLQLNSVTPEDTAVYYCARSYYPDFDYWGQGTLVTVSS
VL: DIELTQPPSVSVAPGQTARISCSGDALGDKYASWYQQKPGQAPVLVIYDDSDRPSGIPERFSGSNSGNTATLTISGTQAEDEADYYCQSYDGPDLWVFGGGTKLTVLGQ
- Direct toxicity on the BMSC [1]: no direct toxicity
- Levels of phosphorylated ERK in aFGF-stimulated UTMC2 cells [2]: return to those of unstimulated cells
- Growth inhibition of FGF stimulated B9-FGFR3^WT cells ([3]; 1 μg/ml antibody): about 25%
- Growth inhibition of FGF stimulated B9-FGFR3^WT cells ([3]; 5 μg/ml antibody): more than 60%
- Viability of KMS11 (FGFR3-Y373C) [4]: failed to inhibit the viability

From patent US20090175866A1, “TREATMENT OF B-CELL MALIGNANCIES” (priority 2004, published 2009)
